We go through 4 substances from patent US7235626B1, “Structured peptide scaffold for displaying turn libraries on phage” (Genentech, Inc., priority 1999, dated 2007).

Positions of bridges follow the written chain, without caps; N, C: chain ends. No end group written: not given here.

Data set [1] in a line: 1H NMR analysis of hairpin structure in solution. The note with it: for structure in solution: NMR, ~2 mM peptide, pH 3.5. It counts as physicochemical. The protocol:
NMR Spectroscopy. […] All spectra were acquired on a Bruker DRX-500 or a Varian Unity-400 spectrometer at 15° C. 2QF-COSY, TOCSY and ROESY spectra were acquired as described (Cavanagh et al. (1995) Protein NMR Spectroscopy, Principles and Practices (Academic Press, San Diego) with gradient coherence selection (van Zijl et al. (1995) J. Magn. Reson. 113A:265-270), or excitation sculpting (Hwang & Shaka, (1995) J. Magn. Reson. 112A, 275-279.) for water suppression. Proton resonances were assigned by standard methods (Wüthrich (1986) NMR of Proteins and Nucleic Acids (John Wiley and Sons, New York). 3JH^N-H^α were obtained by fitting Lorentzian lines to the antiphase doublets of HN—H^α peaks in 2QF-COSY spectra processed to high digital resolution in F2. ^3JH^N-H^α were extracted from COSY-35 spectra acquired on D2O solutions of the peptides. Distance and dihedral angle restraints were generated as described (Skelton et al. (1994) Biochemistry 33:13581-13592). 100 initial structures were calculated using the hybrid distance geometry/simulated annealing program DGII (Havel et al. (1991) Prog. Biophys. Mol. Biol. 56:43-78.); 80 of these were further refined by restrained molecular dynamics using the AMBER all-atom forcefield implemented in DISCOVER as described previously (Skelton et al. (1994) Biochemistry 33:13581-13592.). […]
Structure Calculation. Structures were calculated with 78 ROE-derived distance restraints (10 medium- and 28 long-range restraints; upper bounds of 5.4, 4.3, 3.4 or 3.0 Å) and 12 dihedral angle restraints. […]
NMR Analysis. […] Spectra were acquired and analyzed as described above. The structure of cd2 was calculated from 84 (including 13 medium- and 23 long-range) ROE-derived distance restraints and 13 dihedral angle restraints. […]
Analysis of Sidechain Rotamers. […] Given the large number of backbone-backbone distance and Φ dihedral angle restraints, the structures calculated for bhpw and cd2 do accurately represent the solution conformation of these peptides, except in the over determination of some side chain orientations.

Data set [2] in a line: Cysteine effective concentration (Ceff) measurement, thiol-disulfide equilibrium relative to glutathione. It counts as physicochemical. Here is the method: Cysteine Effective Concentration Measurements. Glutathione stock solutions were prepared by mixing 3 volumes of 0.2 M reduced glutathione (GSH) with 1 volume of 0.1 M oxidized glutatione (GSSG). Aliquots were stored at −80° C. and were stable for several months; use of a single batch eliminated any error in ΔΔG values that might arise from variability of total glutathione concentration. Thiol-disulfide equilibria were established by mixing 50 μL peptide stock (approximately 3 mM in water) with 50 μL glutathione stock, deoxygenating the acidic solution with vacuum/argon cycles from a Firestone valve, then adding 300 μL of deoxygenated buffer by syringe (0.2 M tris, pH 8.0; 1 mM EDTA; 67 mM tris base to titrate glutathione), followed by further deoxygenation of the mixture. The final pH of all reaction mixtures was 8.10±0.05. Solutions were stirred under argon and maintained at 20° C. in a water bath. After 1.5 h, successive aliquots (100 μL) were removed with a gastight syringe, immediately quenched by discharge into 400 μL of 3.1 mM HCl, and analyzed by HPLC with a minimum of delay. Ceff values were calculated from the molar ratios of the reduced and oxidized forms of peptide and glutathione (peak area ratios corrected for absorbance differences measured by HPLC), assuming 0.025 M total glutathione monomer (i.e., neglecting the minor amount (<1%) of glutathione present in mixed disulfides with peptide): Ceff=([peptideox]/[peptidered])×([GSH]^2/[GSSG]) [GSH]+2[GSSG]=0.025 M [GSSG]=0.025 M/{2+3.26 (GSH peak area/GSSG peak area)} [peptideox]/[peptidered]=equilibrium peak area ratio/absorbance ratio
Two or three samples from each reaction mixture were analyzed; there were no shifts in populations with time, and calculated Ceff values typically varied by less than 5% (equivalent to 30 cal/mol uncertainty in ΔΔG).

Data set [3] is described as follows: Circular dichroism spectra of peptides. The note with it: 10° C.; 20 μM peptide in 20 mM potassium phosphate, pH 7.0. It counts as physicochemical. Here is the method: Terminal serine and lysine residues were added to improve the solubility of some variants of the CD4 peptide, which are otherwise uncharged. A similar modification was made to bhpW as a control. Non-turn residues that differ between bhpW and the CD4 loop are underlined. Coelution of reduced and oxidized peptides prevented measurement of Ceff for the T2, N3 variant of the CD4 peptide. Circular dichroism spectra were acquired at 10° C. with an Aviv Instruments, Inc. Model 202 spectrophotometer; peptide concentrations were 20 μM in 20 mM potassium phosphate, pH 7.0.

Data set [4] deals with CD4. As to conditions: normal CD4 interactions and CD4-mediated cell entry by HIV; cited from earlier work.

For “Ac-CGNQGSFLTC-NH2 (disulfide 1-10 (inferred)) [cd1, disulfide-constrained peptide based on native CD4 hairpin residues 38-45]”, in data set [1], the structure in solution entry is listed as “essentially unstructured”.

With “Ac-CTWEGNKLTC-NH2 (disulfide 1-10 (inferred)) [bhpW, tryptophan analog of the model β-hairpin peptide bhp]”, the Ceff was 210 ± 4 mM in data set [2] (Table 1, bhp peptides varied at residue 3, pH 8.10, 20° C.); 210 ± 4 mM in data set [2] (Table 2, bhpW and CD4 C′-C″ loop peptides, pH 8.10, 20° C.). Further, the “[θ]215” value in data set [3] is on record as −19,800 deg cm^2 dmol^−1. Besides, the hairpin conformation population in data set [1] (15° C., estimate) was more than 80%.

Consider “Ac-CTWQGSFLTC-NH2 (disulfide 1-10 (inferred)) [cd2, cd1 with substitutions G2T and N3W]”, for which, in data set [3], the “[θ]215” value is −15,800 deg cm^2 dmol^−1. In addition, in data set [1], the structure in solution entry is “well-ordered”.

Regarding “FCYICEVEDQCY (also: cyclic, type and places not given here) [cyclic peptide from loops of domain 1 of human CD4]”, the “antagonism of CD4 interactions” value in data set [4] was “antagonize”.
